{"source": "paper PMC9482650", "about": "“Quantitative fragmentomics allow affinity mapping of interactomes” (Nature Communications, 2022)", "binders": {"B1": {"name": "SEMA4C, Q9C0C4 (peptide)", "chain": "PDSNPEESSV"}}, "data": [{"biological_target": "PARD3_3, Q8TEW0", "sequence (Q8TEW0 582-685)": "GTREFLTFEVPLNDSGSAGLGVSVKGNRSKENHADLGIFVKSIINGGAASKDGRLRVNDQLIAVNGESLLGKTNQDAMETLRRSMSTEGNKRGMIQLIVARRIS", "assay": "holdup assay", "parameters": "key: below the threshold = too weak to quantify, mostly under pKd 3.1 to 4", "settings": "plain residues with an end cap or a label only (N-terminal biotin on a linker: ado-ado)", "values": [{"binder": "B1", "pKd": "below the threshold"}]}, {"biological_target": "Inadl_1, Q8NI35", "sequence (Q8NI35 113-229)": "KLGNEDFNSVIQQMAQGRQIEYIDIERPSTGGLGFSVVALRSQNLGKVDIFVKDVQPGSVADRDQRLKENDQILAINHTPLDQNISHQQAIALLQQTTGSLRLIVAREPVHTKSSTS", "assay": "holdup assay", "parameters": "key: below the threshold = too weak to quantify, mostly under pKd 3.1 to 4", "settings": "plain residues with an end cap or a label only (N-terminal biotin on a linker: ado-ado)", "values": [{"binder": "B1", "pKd": "below the threshold"}]}, {"biological_target": "T1, APBA1_2, Q02410", "T1 sequence (Q02410 742-832, limits assumed, looked up)": "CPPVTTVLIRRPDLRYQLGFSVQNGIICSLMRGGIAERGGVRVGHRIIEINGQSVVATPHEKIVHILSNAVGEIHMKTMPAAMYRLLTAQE", "assay": "holdup assay", "parameters": "key: below the threshold = too weak to quantify, mostly under pKd 3.1 to 4", "settings": "plain residues with an end cap or a label only (N-terminal biotin on a linker: ado-ado)", "values": [{"binder": "B1", "pKd": 3.8}]}, {"biological_target": "GIPC2, Q8TF65", "sequence (Q8TF65 112-203)": "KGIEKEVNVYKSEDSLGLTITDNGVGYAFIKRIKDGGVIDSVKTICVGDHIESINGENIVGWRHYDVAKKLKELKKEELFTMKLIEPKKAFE", "assay": "holdup assay", "parameters": "key: below the threshold = too weak to quantify, mostly under pKd 3.1 to 4", "settings": "plain residues with an end cap or a label only (N-terminal biotin on a linker: ado-ado)", "values": [{"binder": "B1", "pKd": 3.87}]}, {"biological_target": "DLG2_2, Q15700", "sequence (Q15700 189-283)": "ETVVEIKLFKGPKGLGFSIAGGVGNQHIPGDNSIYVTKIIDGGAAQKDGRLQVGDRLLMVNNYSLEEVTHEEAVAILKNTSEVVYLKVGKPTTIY", "assay": "holdup assay", "parameters": "key: below the threshold = too weak to quantify, mostly under pKd 3.1 to 4", "settings": "plain residues with an end cap or a label only (N-terminal biotin on a linker: ado-ado)", "values": [{"binder": "B1", "pKd": 3.85}]}, {"biological_target": "T2, HTRA3, P83110", "T2 sequence (P83110 354-453, limits assumed, looked up)": "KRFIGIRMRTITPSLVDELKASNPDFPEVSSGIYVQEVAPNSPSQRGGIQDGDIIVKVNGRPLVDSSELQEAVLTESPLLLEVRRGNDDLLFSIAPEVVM", "assay": "holdup assay", "parameters": "key: below the threshold = too weak to quantify, mostly under pKd 3.1 to 4", "settings": "plain residues with an end cap or a label only (N-terminal biotin on a linker: ado-ado)", "values": [{"binder": "B1", "pKd": "below the threshold"}]}, {"biological_target": "T3, GRIP1_3, Q9Y3R0", "T3 sequence (Q9Y3R0 247-346, limits assumed, looked up)": "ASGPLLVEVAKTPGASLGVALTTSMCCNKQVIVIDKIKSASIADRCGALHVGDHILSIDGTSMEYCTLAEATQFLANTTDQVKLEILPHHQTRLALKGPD", "assay": "holdup assay", "parameters": "key: below the threshold = too weak to quantify, mostly under pKd 3.1 to 4", "settings": "plain residues with an end cap or a label only (N-terminal biotin on a linker: ado-ado)", "values": [{"binder": "B1", "pKd": "below the threshold"}]}, {"biological_target": "FRMPD2_1, Q68DX3", "sequence (Q68DX3 770-861)": "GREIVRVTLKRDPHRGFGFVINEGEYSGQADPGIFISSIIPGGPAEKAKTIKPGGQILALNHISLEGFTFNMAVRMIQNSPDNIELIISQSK", "assay": "holdup assay", "parameters": "key: below the threshold = too weak to quantify, mostly under pKd 3.1 to 4", "settings": "plain residues with an end cap or a label only (N-terminal biotin on a linker: ado-ado)", "values": [{"binder": "B1", "pKd": "below the threshold"}]}, {"biological_target": "T4, TX1BP3, O14907", "T4 sequence (O14907 10-122, limits assumed, looked up)": "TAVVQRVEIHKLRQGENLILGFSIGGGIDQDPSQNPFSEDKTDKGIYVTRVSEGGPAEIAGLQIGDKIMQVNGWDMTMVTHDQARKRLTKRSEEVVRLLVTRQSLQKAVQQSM", "assay": "holdup assay", "parameters": "key: below the threshold = too weak to quantify, mostly under pKd 3.1 to 4", "settings": "plain residues with an end cap or a label only (N-terminal biotin on a linker: ado-ado)", "values": [{"binder": "B1", "pKd": 4.25}]}, {"biological_target": "T5, SYNJ2BP, P57105", "T5 sequence (P57105 8-110, limits assumed, looked up)": "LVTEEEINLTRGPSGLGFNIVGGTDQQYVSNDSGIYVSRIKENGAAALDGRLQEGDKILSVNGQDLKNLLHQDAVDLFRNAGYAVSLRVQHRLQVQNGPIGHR", "assay": "holdup assay", "parameters": "key: below the threshold = too weak to quantify, mostly under pKd 3.1 to 4", "settings": "plain residues with an end cap or a label only (N-terminal biotin on a linker: ado-ado)", "values": [{"binder": "B1", "pKd": 5.09}]}, {"biological_target": "T6, LNX2_3, Q8N448", "T6 sequence (Q8N448 463-564, limits assumed, looked up)": "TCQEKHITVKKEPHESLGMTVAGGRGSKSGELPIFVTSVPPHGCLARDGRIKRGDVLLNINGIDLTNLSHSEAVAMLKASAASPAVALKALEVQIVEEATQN", "assay": "holdup assay", "parameters": "key: below the threshold = too weak to quantify, mostly under pKd 3.1 to 4", "settings": "plain residues with an end cap or a label only (N-terminal biotin on a linker: ado-ado)", "values": [{"binder": "B1", "pKd": 3.62}]}, {"biological_target": "T7, SHANK1, Q9Y566", "T7 sequence (Q9Y566 658-767, limits assumed, looked up)": "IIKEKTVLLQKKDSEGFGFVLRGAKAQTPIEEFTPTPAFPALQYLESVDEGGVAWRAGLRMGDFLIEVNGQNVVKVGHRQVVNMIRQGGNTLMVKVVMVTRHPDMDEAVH", "assay": "holdup assay", "parameters": "key: below the threshold = too weak to quantify, mostly under pKd 3.1 to 4", "settings": "plain residues with an end cap or a label only (N-terminal biotin on a linker: ado-ado)", "values": [{"binder": "B1", "pKd": "below the threshold"}]}, {"biological_target": "T8, MPDZ_10, O75970", "T8 sequence (O75970 1624-1722, limits assumed, looked up)": "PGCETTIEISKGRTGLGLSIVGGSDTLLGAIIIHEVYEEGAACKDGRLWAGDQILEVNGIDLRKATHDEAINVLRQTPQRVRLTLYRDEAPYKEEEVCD", "assay": "holdup assay", "parameters": "key: below the threshold = too weak to quantify, mostly under pKd 3.1 to 4", "settings": "plain residues with an end cap or a label only (N-terminal biotin on a linker: ado-ado)", "values": [{"binder": "B1", "pKd": "below the threshold"}]}, {"biological_target": "T9, SNTB1, Q13884", "T9 sequence (Q13884 107-205, limits assumed, looked up)": "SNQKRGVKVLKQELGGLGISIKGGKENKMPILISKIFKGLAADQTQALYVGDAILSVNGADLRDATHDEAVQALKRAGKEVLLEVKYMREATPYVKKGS", "assay": "holdup assay", "parameters": "key: below the threshold = too weak to quantify, mostly under pKd 3.1 to 4", "settings": "plain residues with an end cap or a label only (N-terminal biotin on a linker: ado-ado)", "values": [{"binder": "B1", "pKd": 4.46}]}, {"biological_target": "T10, PDZD7_3, Q9H5P4", "T10 sequence (Q9H5P4 857-944, limits assumed, looked up)": "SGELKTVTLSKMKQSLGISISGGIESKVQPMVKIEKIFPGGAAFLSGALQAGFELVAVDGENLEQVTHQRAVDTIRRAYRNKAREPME", "assay": "holdup assay", "parameters": "key: below the threshold = too weak to quantify, mostly under pKd 3.1 to 4", "settings": "plain residues with an end cap or a label only (N-terminal biotin on a linker: ado-ado)", "values": [{"binder": "B1", "pKd": 3.9}]}, {"biological_target": "NHERF4_4, Q86UT5", "sequence (Q86UT5 464-550)": "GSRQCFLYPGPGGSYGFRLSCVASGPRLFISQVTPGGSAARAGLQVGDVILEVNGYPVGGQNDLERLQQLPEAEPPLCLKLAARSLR", "assay": "holdup assay", "parameters": "key: below the threshold = too weak to quantify, mostly under pKd 3.1 to 4", "settings": "plain residues with an end cap or a label only (N-terminal biotin on a linker: ado-ado)", "values": [{"binder": "B1", "pKd": "below the threshold"}]}, {"biological_target": "T11, APBA1_1, Q02410", "T11 sequence (Q02410 651-752, limits assumed, looked up)": "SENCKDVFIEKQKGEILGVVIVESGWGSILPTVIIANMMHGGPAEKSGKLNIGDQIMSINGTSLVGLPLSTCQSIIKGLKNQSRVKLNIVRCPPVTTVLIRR", "assay": "holdup assay", "parameters": "key: below the threshold = too weak to quantify, mostly under pKd 3.1 to 4", "settings": "plain residues with an end cap or a label only (N-terminal biotin on a linker: ado-ado)", "values": [{"binder": "B1", "pKd": "below the threshold"}]}, {"biological_target": "MAST1, Q9Y2H9", "sequence (Q9Y2H9 962-1065)": "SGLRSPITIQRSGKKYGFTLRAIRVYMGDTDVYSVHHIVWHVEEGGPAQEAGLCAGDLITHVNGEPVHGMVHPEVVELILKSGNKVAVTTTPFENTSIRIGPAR", "assay": "holdup assay", "parameters": "key: below the threshold = too weak to quantify, mostly under pKd 3.1 to 4", "settings": "plain residues with an end cap or a label only (N-terminal biotin on a linker: ado-ado)", "values": [{"binder": "B1", "pKd": 4.86}]}, {"biological_target": "GRID2IP_2, A4D2P6", "sequence (A4D2P6 272-370)": "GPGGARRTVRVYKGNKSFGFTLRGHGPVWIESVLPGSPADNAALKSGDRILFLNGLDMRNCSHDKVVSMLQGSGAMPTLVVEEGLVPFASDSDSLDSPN", "assay": "holdup assay", "parameters": "key: below the threshold = too weak to quantify, mostly under pKd 3.1 to 4", "settings": "plain residues with an end cap or a label only (N-terminal biotin on a linker: ado-ado)", "values": [{"binder": "B1", "pKd": 3.9}]}, {"biological_target": "T12, GRIP1_7, Q9Y3R0", "T12 sequence (Q9Y3R0 999-1096, limits assumed, looked up)": "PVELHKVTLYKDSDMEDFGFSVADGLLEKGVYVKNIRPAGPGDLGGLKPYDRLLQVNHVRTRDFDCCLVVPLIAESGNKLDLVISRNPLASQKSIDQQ", "assay": "holdup assay", "parameters": "key: below the threshold = too weak to quantify, mostly under pKd 3.1 to 4", "settings": "plain residues with an end cap or a label only (N-terminal biotin on a linker: ado-ado)", "values": [{"binder": "B1", "pKd": "below the threshold"}]}, {"biological_target": "GRID2IP_1, A4D2P6", "sequence (A4D2P6 1-87)": "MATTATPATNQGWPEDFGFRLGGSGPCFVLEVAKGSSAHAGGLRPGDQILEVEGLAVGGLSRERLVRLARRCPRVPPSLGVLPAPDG", "assay": "holdup assay", "parameters": "key: below the threshold = too weak to quantify, mostly under pKd 3.1 to 4", "settings": "plain residues with an end cap or a label only (N-terminal biotin on a linker: ado-ado)", "values": [{"binder": "B1", "pKd": "below the threshold"}]}, {"biological_target": "T13, MPP7, Q5T2T1", "T13 sequence (Q5T2T1 134-230, limits assumed, looked up)": "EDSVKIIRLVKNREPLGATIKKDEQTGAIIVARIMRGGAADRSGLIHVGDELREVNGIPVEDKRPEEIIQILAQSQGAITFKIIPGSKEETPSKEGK", "assay": "holdup assay", "parameters": "key: below the threshold = too weak to quantify, mostly under pKd 3.1 to 4", "settings": "plain residues with an end cap or a label only (N-terminal biotin on a linker: ado-ado)", "values": [{"binder": "B1", "pKd": "below the threshold"}]}, {"biological_target": "MAGI3_2, Q5TCQ9", "sequence (Q5TCQ9 398-503)": "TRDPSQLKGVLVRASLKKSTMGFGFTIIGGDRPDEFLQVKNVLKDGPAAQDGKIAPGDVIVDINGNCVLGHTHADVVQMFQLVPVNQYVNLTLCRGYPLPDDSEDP", "assay": "holdup assay", "parameters": "key: below the threshold = too weak to quantify, mostly under pKd 3.1 to 4", "settings": "plain residues with an end cap or a label only (N-terminal biotin on a linker: ado-ado)", "values": [{"binder": "B1", "pKd": 3.77}]}]}
